Publication PMC2810336, “Mutational Analysis of Highly Conserved Residues in the Phage PhiC31 Integrase Reveals Key Amino Acids Necessary for the DNA Recombination”

Columns and labels:
Assay in all cases: EMSA; 400 nM protein; 50 ng/ul Poly (competitor (so in the source)), 0.05% NP-40, 50 mM KCl, 5 mM MgCl2, 10 mM EDTA, 20 ul, 0.4 ng (16 fmol) probe; 30 min at room temperature (Methods) or 30 C; pH not stated; synapsis 2 h at 30 C
Details in all cases: protein: recombinant; tags: C-terminal His; chain copies: 2; label: biotin, double-strand end-labeled; blunt
phiC31 integrase Y393A = target: T1, phiC31 integrase Y393A (Streptomyces phage phiC31, UniProt Q38194 1-613, Y393A)
T1 sequence: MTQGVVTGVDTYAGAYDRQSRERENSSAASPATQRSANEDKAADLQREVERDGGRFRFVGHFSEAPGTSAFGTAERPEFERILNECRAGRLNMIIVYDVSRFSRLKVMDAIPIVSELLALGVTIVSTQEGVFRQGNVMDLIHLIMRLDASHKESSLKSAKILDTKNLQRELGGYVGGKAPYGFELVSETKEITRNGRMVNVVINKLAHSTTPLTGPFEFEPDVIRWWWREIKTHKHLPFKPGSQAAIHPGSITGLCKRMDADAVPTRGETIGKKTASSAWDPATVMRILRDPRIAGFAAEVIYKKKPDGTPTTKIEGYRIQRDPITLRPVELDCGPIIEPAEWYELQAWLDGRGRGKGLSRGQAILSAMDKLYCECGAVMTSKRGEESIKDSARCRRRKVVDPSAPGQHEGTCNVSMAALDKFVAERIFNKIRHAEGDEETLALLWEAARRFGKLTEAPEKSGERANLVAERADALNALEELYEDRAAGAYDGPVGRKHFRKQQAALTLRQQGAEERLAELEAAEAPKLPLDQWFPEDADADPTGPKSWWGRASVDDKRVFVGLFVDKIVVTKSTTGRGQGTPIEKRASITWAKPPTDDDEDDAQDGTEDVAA

phiC31 integrase V566A = target: T2, phiC31 integrase V566A (Streptomyces phage phiC31, UniProt Q38194 1-613, V566A)
T2 sequence: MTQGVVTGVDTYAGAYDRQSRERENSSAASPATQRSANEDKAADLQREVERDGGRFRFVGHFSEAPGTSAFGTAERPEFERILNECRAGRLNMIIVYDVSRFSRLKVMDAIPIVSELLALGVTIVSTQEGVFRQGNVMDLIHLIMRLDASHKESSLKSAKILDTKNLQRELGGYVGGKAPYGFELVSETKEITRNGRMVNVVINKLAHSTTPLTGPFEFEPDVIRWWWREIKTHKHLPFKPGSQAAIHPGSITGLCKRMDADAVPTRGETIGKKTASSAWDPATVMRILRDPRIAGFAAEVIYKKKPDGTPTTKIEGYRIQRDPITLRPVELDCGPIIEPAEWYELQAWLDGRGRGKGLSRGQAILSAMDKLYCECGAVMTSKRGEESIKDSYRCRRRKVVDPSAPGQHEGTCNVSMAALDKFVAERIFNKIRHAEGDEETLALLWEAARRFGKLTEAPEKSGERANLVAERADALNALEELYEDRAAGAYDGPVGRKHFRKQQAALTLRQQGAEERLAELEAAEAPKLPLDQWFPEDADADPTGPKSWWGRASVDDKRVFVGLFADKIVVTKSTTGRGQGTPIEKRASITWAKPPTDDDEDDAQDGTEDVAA

[1] = target: T3, phiC31 integrase G182A/F183A (Streptomyces phage phiC31, UniProt Q38194 1-613, G182A;F183A)
T3 sequence: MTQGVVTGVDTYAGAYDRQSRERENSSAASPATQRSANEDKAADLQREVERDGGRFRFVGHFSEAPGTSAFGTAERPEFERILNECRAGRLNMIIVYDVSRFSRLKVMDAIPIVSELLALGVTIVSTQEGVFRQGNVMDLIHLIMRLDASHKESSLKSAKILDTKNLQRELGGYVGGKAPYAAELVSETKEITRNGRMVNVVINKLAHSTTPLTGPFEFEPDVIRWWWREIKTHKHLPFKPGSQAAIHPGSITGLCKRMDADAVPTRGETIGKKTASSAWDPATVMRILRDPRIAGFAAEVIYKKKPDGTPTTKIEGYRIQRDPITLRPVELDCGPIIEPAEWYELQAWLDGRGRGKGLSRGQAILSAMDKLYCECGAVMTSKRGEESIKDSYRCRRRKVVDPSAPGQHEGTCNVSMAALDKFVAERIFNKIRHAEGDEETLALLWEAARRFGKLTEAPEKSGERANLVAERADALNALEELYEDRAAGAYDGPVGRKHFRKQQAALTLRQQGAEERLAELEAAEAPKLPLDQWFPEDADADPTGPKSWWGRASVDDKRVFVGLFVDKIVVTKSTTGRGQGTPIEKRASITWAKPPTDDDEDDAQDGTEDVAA

Measured: binding signal

B1: attB 41 bp (dsDNA)
DNA 1: CGGGTGCCAGGGCGTGCCCTTGGGCTCCCCGGGCGCGTACT
DNA 2: AGTACGCGCCCGGGGAGCCCAAGGGCACGCCCTGGCACCCG
0 % of WT: all assays above
